# US20190233495A1 (Sanofi, published 2019)
# Non-standard residues stand in square brackets, D forms with d. αMeK = C[C@](N)(CCCCN)C(=O)O; Nle = CCCC[C@H](N)C(=O)O; Aib = CC(C)(N)C(=O)O
# T1: RXFP1 receptor (UniProt Q9HBX9 1-757, limits assumed)
# T1 sequence (looked up): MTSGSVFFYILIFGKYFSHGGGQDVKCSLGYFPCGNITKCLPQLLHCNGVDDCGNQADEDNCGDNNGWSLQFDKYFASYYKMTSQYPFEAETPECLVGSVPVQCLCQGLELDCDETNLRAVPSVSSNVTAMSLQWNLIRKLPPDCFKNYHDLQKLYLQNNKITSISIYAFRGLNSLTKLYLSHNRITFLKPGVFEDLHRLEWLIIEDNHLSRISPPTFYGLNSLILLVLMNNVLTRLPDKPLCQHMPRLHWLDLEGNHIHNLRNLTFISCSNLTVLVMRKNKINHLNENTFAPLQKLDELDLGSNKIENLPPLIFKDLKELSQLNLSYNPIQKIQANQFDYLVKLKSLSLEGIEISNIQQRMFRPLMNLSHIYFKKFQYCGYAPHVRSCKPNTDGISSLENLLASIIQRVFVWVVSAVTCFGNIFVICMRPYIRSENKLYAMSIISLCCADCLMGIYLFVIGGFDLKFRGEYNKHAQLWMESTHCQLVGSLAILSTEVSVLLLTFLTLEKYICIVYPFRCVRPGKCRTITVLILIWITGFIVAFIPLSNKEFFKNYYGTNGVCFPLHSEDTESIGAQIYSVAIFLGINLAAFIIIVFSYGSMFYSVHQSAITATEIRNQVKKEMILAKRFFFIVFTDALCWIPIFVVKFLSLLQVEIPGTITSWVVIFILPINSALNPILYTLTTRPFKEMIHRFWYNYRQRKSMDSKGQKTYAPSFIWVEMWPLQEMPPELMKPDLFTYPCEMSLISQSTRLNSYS
# B1: SEQ ID NO: 18 (peptide)
# peptide: Ac-LEGREKVRAAI[Aib][Aib]EGMSKWS[Aib]RK-NH2
# SMILES: CC[C@H](C)[C@H](NC(=O)[C@H](C)NC(=O)[C@H](C)NC(=O)[C@H](CCCNC(=N)N)NC(=O)[C@@H](NC(=O)[C@H](CCCCN)NC(=O)[C@H](CCC(=O)O)NC(=O)[C@H](CCCNC(=N)N)NC(=O)CNC(=O)[C@H](CCC(=O)O)NC(=O)[C@H](CC(C)C)NC(C)=O)C(C)C)C(=O)NC(C)(C)C(=O)NC(C)(C)C(=O)N[C@@H](CCC(=O)O)C(=O)NCC(=O)N[C@@H](CCSC)C(=O)N[C@@H](CO)C(=O)N[C@@H](CCCCN)C(=O)N[C@@H](Cc1c[nH]c2ccccc12)C(=O)N[C@@H](CO)C(=O)NC(C)(C)C(=O)N[C@@H](CCCNC(=N)N)C(=O)N[C@@H](CCCCN)C(N)=O
# B2: SEQ ID NO: 19 (peptide)
# peptide: Ac-LEGREKVRA[Aib]I[Aib][Aib]EG[Nle]STWSKRKK-NH2
# SMILES: CCCC[C@H](NC(=O)CNC(=O)[C@H](CCC(=O)O)NC(=O)C(C)(C)NC(=O)C(C)(C)NC(=O)[C@@H](NC(=O)C(C)(C)NC(=O)[C@H](C)NC(=O)[C@H](CCCNC(=N)N)NC(=O)[C@@H](NC(=O)[C@H](CCCCN)NC(=O)[C@H](CCC(=O)O)NC(=O)[C@H](CCCNC(=N)N)NC(=O)CNC(=O)[C@H](CCC(=O)O)NC(=O)[C@H](CC(C)C)NC(C)=O)C(C)C)[C@@H](C)CC)C(=O)N[C@@H](CO)C(=O)N[C@H](C(=O)N[C@@H](Cc1c[nH]c2ccccc12)C(=O)N[C@@H](CO)C(=O)N[C@@H](CCCCN)C(=O)N[C@@H](CCCNC(=N)N)C(=O)N[C@@H](CCCCN)C(=O)N[C@@H](CCCCN)C(N)=O)[C@@H](C)O
# B3: SEQ ID NO: 21 (peptide)
# peptide: Ac-LEGREKVRAQI[Aib][Aib]EG[Nle]STWS[Aib]RKK(Ac)-NH2
# SMILES: CCCC[C@H](NC(=O)CNC(=O)[C@H](CCC(=O)O)NC(=O)C(C)(C)NC(=O)C(C)(C)NC(=O)[C@@H](NC(=O)[C@H](CCC(N)=O)NC(=O)[C@H](C)NC(=O)[C@H](CCCNC(=N)N)NC(=O)[C@@H](NC(=O)[C@H](CCCCN)NC(=O)[C@H](CCC(=O)O)NC(=O)[C@H](CCCNC(=N)N)NC(=O)CNC(=O)[C@H](CCC(=O)O)NC(=O)[C@H](CC(C)C)NC(C)=O)C(C)C)[C@@H](C)CC)C(=O)N[C@@H](CO)C(=O)N[C@H](C(=O)N[C@@H](Cc1c[nH]c2ccccc12)C(=O)N[C@@H](CO)C(=O)NC(C)(C)C(=O)N[C@@H](CCCNC(=N)N)C(=O)N[C@@H](CCCCN)C(=O)N[C@@H](CCCCNC(C)=O)C(N)=O)[C@@H](C)O
# B4: SEQ ID NO: 24 (peptide)
# peptide: Ac-LEGREKVRAK(Ac)I[Aib][Aib]EG[Nle]STWS[Aib]RKK-NH2
# SMILES: CCCC[C@H](NC(=O)CNC(=O)[C@H](CCC(=O)O)NC(=O)C(C)(C)NC(=O)C(C)(C)NC(=O)[C@@H](NC(=O)[C@H](CCCCNC(C)=O)NC(=O)[C@H](C)NC(=O)[C@H](CCCNC(=N)N)NC(=O)[C@@H](NC(=O)[C@H](CCCCN)NC(=O)[C@H](CCC(=O)O)NC(=O)[C@H](CCCNC(=N)N)NC(=O)CNC(=O)[C@H](CCC(=O)O)NC(=O)[C@H](CC(C)C)NC(C)=O)C(C)C)[C@@H](C)CC)C(=O)N[C@@H](CO)C(=O)N[C@H](C(=O)N[C@@H](Cc1c[nH]c2ccccc12)C(=O)N[C@@H](CO)C(=O)NC(C)(C)C(=O)N[C@@H](CCCNC(=N)N)C(=O)N[C@@H](CCCCN)C(=O)N[C@@H](CCCCN)C(N)=O)[C@@H](C)O
# B5: SEQ ID NO: 16 (peptide)
# peptide: Ac-LEGREKVRAAI[Aib][Aib]EGMSTWSKRKK-NH2
# SMILES: CC[C@H](C)[C@H](NC(=O)[C@H](C)NC(=O)[C@H](C)NC(=O)[C@H](CCCNC(=N)N)NC(=O)[C@@H](NC(=O)[C@H](CCCCN)NC(=O)[C@H](CCC(=O)O)NC(=O)[C@H](CCCNC(=N)N)NC(=O)CNC(=O)[C@H](CCC(=O)O)NC(=O)[C@H](CC(C)C)NC(C)=O)C(C)C)C(=O)NC(C)(C)C(=O)NC(C)(C)C(=O)N[C@@H](CCC(=O)O)C(=O)NCC(=O)N[C@@H](CCSC)C(=O)N[C@@H](CO)C(=O)N[C@H](C(=O)N[C@@H](Cc1c[nH]c2ccccc12)C(=O)N[C@@H](CO)C(=O)N[C@@H](CCCCN)C(=O)N[C@@H](CCCNC(=N)N)C(=O)N[C@@H](CCCCN)C(=O)N[C@@H](CCCCN)C(N)=O)[C@@H](C)O
# B6: SEQ ID NO: 2 (peptide)
# peptide: Ac-LEGREKVRAQI[Aib][Aib]EGMSKWSKRKK-NH2
# SMILES: CC[C@H](C)[C@H](NC(=O)[C@H](CCC(N)=O)NC(=O)[C@H](C)NC(=O)[C@H](CCCNC(=N)N)NC(=O)[C@@H](NC(=O)[C@H](CCCCN)NC(=O)[C@H](CCC(=O)O)NC(=O)[C@H](CCCNC(=N)N)NC(=O)CNC(=O)[C@H](CCC(=O)O)NC(=O)[C@H](CC(C)C)NC(C)=O)C(C)C)C(=O)NC(C)(C)C(=O)NC(C)(C)C(=O)N[C@@H](CCC(=O)O)C(=O)NCC(=O)N[C@@H](CCSC)C(=O)N[C@@H](CO)C(=O)N[C@@H](CCCCN)C(=O)N[C@@H](Cc1c[nH]c2ccccc12)C(=O)N[C@@H](CO)C(=O)N[C@@H](CCCCN)C(=O)N[C@@H](CCCNC(=N)N)C(=O)N[C@@H](CCCCN)C(=O)N[C@@H](CCCCN)C(N)=O
# B7: SEQ ID NO: 20 (peptide)
# peptide: Ac-LEGREKVRA[Aib]I[Aib][Aib]EG[Nle]STWS[αMeK]RKK-NH2
# SMILES: CCCC[C@H](NC(=O)CNC(=O)[C@H](CCC(=O)O)NC(=O)C(C)(C)NC(=O)C(C)(C)NC(=O)[C@@H](NC(=O)C(C)(C)NC(=O)[C@H](C)NC(=O)[C@H](CCCNC(=N)N)NC(=O)[C@@H](NC(=O)[C@H](CCCCN)NC(=O)[C@H](CCC(=O)O)NC(=O)[C@H](CCCNC(=N)N)NC(=O)CNC(=O)[C@H](CCC(=O)O)NC(=O)[C@H](CC(C)C)NC(C)=O)C(C)C)[C@@H](C)CC)C(=O)N[C@@H](CO)C(=O)N[C@H](C(=O)N[C@@H](Cc1c[nH]c2ccccc12)C(=O)N[C@@H](CO)C(=O)N[C@@](C)(CCCCN)C(=O)N[C@@H](CCCNC(=N)N)C(=O)N[C@@H](CCCCN)C(=O)N[C@@H](CCCCN)C(N)=O)[C@@H](C)O
# B8: SEQ ID NO: 17 (peptide)
# peptide: Ac-LEGREKVRAAI[Aib][Aib]EG[Nle]STWS[Aib]RKK-NH2
# SMILES: CCCC[C@H](NC(=O)CNC(=O)[C@H](CCC(=O)O)NC(=O)C(C)(C)NC(=O)C(C)(C)NC(=O)[C@@H](NC(=O)[C@H](C)NC(=O)[C@H](C)NC(=O)[C@H](CCCNC(=N)N)NC(=O)[C@@H](NC(=O)[C@H](CCCCN)NC(=O)[C@H](CCC(=O)O)NC(=O)[C@H](CCCNC(=N)N)NC(=O)CNC(=O)[C@H](CCC(=O)O)NC(=O)[C@H](CC(C)C)NC(C)=O)C(C)C)[C@@H](C)CC)C(=O)N[C@@H](CO)C(=O)N[C@H](C(=O)N[C@@H](Cc1c[nH]c2ccccc12)C(=O)N[C@@H](CO)C(=O)NC(C)(C)C(=O)N[C@@H](CCCNC(=N)N)C(=O)N[C@@H](CCCCN)C(=O)N[C@@H](CCCCN)C(N)=O)[C@@H](C)O
# B9: SEQ ID NO: 23 (peptide)
# peptide: Ac-LEGREKVRAQI[Aib][Aib]EG[Nle]STWT[Aib]RKK-NH2
# SMILES: CCCC[C@H](NC(=O)CNC(=O)[C@H](CCC(=O)O)NC(=O)C(C)(C)NC(=O)C(C)(C)NC(=O)[C@@H](NC(=O)[C@H](CCC(N)=O)NC(=O)[C@H](C)NC(=O)[C@H](CCCNC(=N)N)NC(=O)[C@@H](NC(=O)[C@H](CCCCN)NC(=O)[C@H](CCC(=O)O)NC(=O)[C@H](CCCNC(=N)N)NC(=O)CNC(=O)[C@H](CCC(=O)O)NC(=O)[C@H](CC(C)C)NC(C)=O)C(C)C)[C@@H](C)CC)C(=O)N[C@@H](CO)C(=O)N[C@H](C(=O)N[C@@H](Cc1c[nH]c2ccccc12)C(=O)N[C@H](C(=O)NC(C)(C)C(=O)N[C@@H](CCCNC(=N)N)C(=O)N[C@@H](CCCCN)C(=O)N[C@@H](CCCCN)C(N)=O)[C@@H](C)O)[C@@H](C)O
# B10: SEQ ID NO: 22 (peptide)
# peptide: Ac-LEGREKVRAQI[Aib][Aib]EG[Nle]STWA[Aib]RKK-NH2
# SMILES: CCCC[C@H](NC(=O)CNC(=O)[C@H](CCC(=O)O)NC(=O)C(C)(C)NC(=O)C(C)(C)NC(=O)[C@@H](NC(=O)[C@H](CCC(N)=O)NC(=O)[C@H](C)NC(=O)[C@H](CCCNC(=N)N)NC(=O)[C@@H](NC(=O)[C@H](CCCCN)NC(=O)[C@H](CCC(=O)O)NC(=O)[C@H](CCCNC(=N)N)NC(=O)CNC(=O)[C@H](CCC(=O)O)NC(=O)[C@H](CC(C)C)NC(C)=O)C(C)C)[C@@H](C)CC)C(=O)N[C@@H](CO)C(=O)N[C@H](C(=O)N[C@@H](Cc1c[nH]c2ccccc12)C(=O)N[C@@H](C)C(=O)NC(C)(C)C(=O)N[C@@H](CCCNC(=N)N)C(=O)N[C@@H](CCCCN)C(=O)N[C@@H](CCCCN)C(N)=O)[C@@H](C)O
# Target: T1, RXFP1 receptor
# Assay: cell-based or functional assay
Binder,cAMP assay in OVCAR 5 cells EC50 [nM],cAMP assay in OVCAR 5 cells Emax [%]
B1,52.1,104
B2,18.2,97
B3,32.8,96
B4,47.9,92
B5,4.6,101
B6,14.4,99
B7,1.8,97
B8,11.6,90
B9,128,95
B10,57.1,102
